Laboratory results published in the DeepSol protein solubility set.

Experiment: soluble on expression in E. coli; label from the status in PepcDB or PDB records

| Sequence | soluble on expression in E. coli |
| --- | --- |
| MRAVVVGAGLGGLLAGAFLARNGHEIIVLEKSAMIGGRFTNLPYKGFQLSTGALHMIPHGEDGPLAHLLRILGAKVEIVNSNPKGKILWEGKIFHYRESWKFLSVKEKAKALKLLAEIRMNKLPKEEIPADEWIKEKIGENEFLLSVLESFAGWADSVSLSDLTALELAKEIRAALRWGGPGLIRGGCKAVIDELERIIMENKGKILTRKEVVEINIEEKKVYTRDNEEYSFDVAISNVGVRETVKLIGRDYFDRDYLKQVDSIEPSEGIKFNLAVPGEPRIGNTIVFTPGLMINGFNEPSALDKSLAREGYTLIMAHMALKNGNVKKAIEKGWEELLEIFPEGEPLLAQVYRDGNPVNRTRAGLHIEWPLNEVLVVGDGYRPPGGIEVDGIALGVMKALEKLNLGSFSEWYLLEHHHHHH | soluble |
| SAILALFFHMYSHNISSLSMKAQPERMHVLVLSSWRSGSSFVGQLFGQHPDVFYLMEPAWHVWMTFKQSTAWMLHMAVRDLIRAVFLCDMSVFDAYMEPGPRRQSSLFQWENSRALCSAPACDIIPQDEIIPRAHCRLLCSQQPFEVVEKACRSYSHVVLKEVRFFNLQSLYPLLKDPSLNLHIVHLVRDPRAVFRSRERTKGDLMIDSRIVMGQHEQKLKKEDQPYYVMQVICQSQLEIYKTIQSLPKALQERYLLVRYEDLARAPVAQTSRMYEFVGLEFLPHLQTWVHNITRGKGMGDHAFHTNARDALNVSQAWRWSLPYEKVSRLQKACGDAMNLLGYRHVRSEQEQRNLLLDLLSTWTVPEQIH | not soluble |
| MRISKMLVTELNIYPLKSARGIALKESAVSAEGLPGDRRAMLTDPSGHFITQRELPAIATVLARHEDGGMALSRERSGEIFARPSGQRMDVAVWKSIVSANIADDETNDTLSAWLGREVKLVFFDDAAKRIASLEWTGNETPVTFADGYQILVTTTASLAALNDNMRGNGEDAVGMERFRPNIVLETEEAWAEDRWAAIEIGGIRFDLVKPCARCIMTTQDQMTGSRDVPSPMKAMGRIRMSGDRRVPGPLFGWNVTPRGEGRLSVGDVARVVEERPEGWAIKRR | soluble |
| GPLHMVKVALAGCPNVGKTSLFNALTGTKQYVANWPGVTVEKKEGVFTYKGYTINLIDLPGTYSLGYSSIDEKIARDYLLKGDADLVILVADSVNPEQSLYLLLEILEMEKKVILAMTAIDEAKKTGMKIDRYELQKHLGIPVVFTSSVTGEGLEELKEKIVEYAQKNTILHRMILDYGEKVESEIKKVENFLRDKKLRINPRYFALKYLSGDPEFYSEGVKLGLPELSEEERIGYRLLIAKRKREYVENVVKEAFAD | soluble |
| FIFLALLGAAVAFPVDDDDKIVGGYTCGANTVPYQVSLNSGYHFCGGSLINSQWVVSAAHCYKSGIQVRLGEDNINVVEGNEQFISASKSIVHPSYNSNTLNNDIMLIKLKSAASLNSRVASISLPTSCASAGTQCLISGWGNTKSSGTSYPDVLKCLKAPILSDSSCKSAYPGQITSNMFCAGYLEGGKDSCQGDSGGPVVCSGKLQGIVSWGSGCAQKNKPGVYTKVCNYVSWIKQTIASN | soluble |
| MAGRPKDPTINKKIYTEIQRLLETTHFRDITIDQISENTGISKATIYRRWKDKSSIIMSAFIEQSQYIAIHNQDNLYDDLFQFLVKIKDIYKTKLGSAVIEILISHQQMEARETFMTNYFNHNRKVLKEIVRKHIQEEEQDLFIDLIFSPIYFNILIKPETLDENYIKKMLNQVLRIYH | not soluble |
| MAPSRRERERERRREQIIRAAEKAFFARGYDRVTMDEIAEEAEVNKALLYYYFKNKESLFFAVNLYGVRILHSMYRRCLELDTDGYGKVRAMVEALYSFSKEHPDYFRIYCYSGTERFELSESEDAREIVDLRTGMWRLMVEAIMEGMNDGSIRSDLDPVELSIYIHTLAINALNLDFTSRMVLEARNISRDRFWEDLEVFLESALRP | not soluble |
| MDSDLYDEFGNYIGPELDSDDDAGDIDDNGDDEDRSDVDEDDEPDRMEEDDAEEIPQNQVVLHEDKKYYATALEVYGEGVETLVQEEDAQPLTEPIVKPVSKKKFQAAERFLPETVYKKEYLADLMDCPHIMRNVAIAGHLHHGKTTFLDCLMEQTHPEFYRAEDADARFTDILFIEKQRGCSIKSQPVSIVAQDSRSKSYLLNIIDTPGHVNFSDEMTASYRLADGVVVMVDAHEGVMMNTERAIRHAIQERLAVTLCISKIDRLLLELKLPPADAYFKLRLIIDQVNNILSTFAEEDVPVLSPLNGNVIFSSGRYNVCFSLLSFSNIYAKQHGDSFNSKEFARRLWGDIYFEKKTRKFVKKSPSHDAPRTFVQFILEPMYKIFSQVVGDVDTCLPDVMAELGIRLSKEEQKMNVRPLIALICKRFFGDFSAFVDLVVQNIKSPLENAKTKIEQTYLGPADSQLAQEMQKCNAEGPLMVHTTKNYPVDDATQFHVFGRVMSGTLEANTDVRVLGENYSIQDEEDCRRMTVGRLFVRVASYQIEVSRVPAGCWVLIEGIDQPIVKTATIAELGYEEDVYIFRPLKFNTRSCVKLAVEPINPSELPKMLDGLRKVNKSYPLLTTRVEESGEHVLLGTGEFYMDCVMHDMRKVFSEIDIKVADPVVTFNETVIETSTLKCFAETPNKKNKITMMAEPLEKQLDEDIENEVVQIGWNRRRLGEFFQTKYNWDLLAARSIWAFGPDTTGPNILLDDTLPSEVDKHLLSTVRESLVQGFQWATREGPLCEEPIRQVKFKLLDAAIATEPLYRGGGQMIPTARRCAYSAFLMATPRLMEPYYTVEVVAPADCVAAVYTVLAKRRGHVTTDAPMPGSPMYTISAYIPVMDSFGFETDLRIHTQGQAFCMSAFHHWQLVPGDPLDKSIVIKTLDVQPTPHLAREFMIKTRRRKGLSEDVSVNKFFDDPMLLELAKQQDYTGF | soluble |
| MKPVQSVSATQHYNPLTNLGQEASCSHEISGITQTEGMQATAATTQTAEQLTTARVRDITAAAKVIPDGTTVMSRKPEDLSQLQTAYLAAKNAPTHPDLYLKLCETFRVHDERHASEGHENICAKTMTARIDDDAIRVMAYASRGMHGGDVNNFLKFSFNSGLPNPISSALPSMLTFGASSFIGAVHGPWSGFGSALAFAAAKPFMAGGIQPAIVSLCDNIRGRNAPTVLAKGEVNDEIWLDAAAQTLEGLNEDTRRALTSFDDAVQAAITSVGIRDPKFLETDEGLELFFDHLSDTHFNCLREALEGVNNALQNTAPQTRESLRALEEASRPNMLEQRETTLKAEFSNLRQKEGNDWQRIPRSLRASGGTLTSGLSGLKRDEIPTRMNPALDRKSHFEGLNALASPAVGTSYAAAISLLQSPMAGLDERNKQKFNVKAAIVFYDAFTPEGKQRYLAGEEMDPDRDVDQAKLRGVFTSVSEYMVKSTQENLKQRQKVLGVEISEAGHALNALPENTSSITPPEIRAKVERYKALSADMSAVTQAIREGNPNFLTDLPDGEVKKAFDDCVNSGGMHVLENMTKVKYAKQGELKAQWTQKVSTDVSMFGLAGQFTPSIVNKLAAAICGGAGHIPNAVVGFLGAYSLAASFIGAQTQFAAINAKNNFREGNPKPTSLETFMRGNLAPVMQASANRHSQHALQGAEQAISTARQALNSSLGQNL | not soluble |
| MGSDKIHHHHHHENLYFQGMIESIQELLQKEAQAVLNIPVTDAYEKAVELIVEQIHRKKGKLVTSGMGKAGQIAMNIATTFCSTGIPSVFLHPSEAQHGDLGILQENDLLLLISNSGKTREIVELTQLAHNLNPGLKFIVITGNPDSPLASESDVCLSTGHPAEVCTLGMTPTTSTTVMTVIGDILVVQTMKRTEFTIEEYSKRHHGGYLGEKSRKLCVK | soluble |
| MGSDKIHHHHHHMWVRVPPPAPFSIFLSPGDDIVKRRKSTRTSSFGVKGRESHDSSPFYSRAIYSNFSLPKPSEEDLIENPLPENLLDKVIEGDAREVLKKIPDCSIHLMVTSPPYNVGKEYDEDMTLDEYLEFIEEIMKEVYRVLVWGGRACFNVANLGRKPYIPLHAYLIHLFEKIGFLIRGEIIWDKGEAVSGSSTAWGSWMSPVNPVLRDQHEYIIVMSKGDLKRRKPSDREAKSTITREEFLEFTRSVWKFPPESAKRVGHPAPFPEELPYRCIQLYTFKGDVVLDPFAGVGTTCVAAVKTGRHFVGIEINPEYVKKAEERVKDILSKPTLFEDHC | not soluble |
| MAGDRKRGFIRPDEDYALIEPQRWGLPDYGDSKEKKAKQTAFNYDPSWVPNFDEPEEEQALELTEEQIELIKQGAYQEGLYQGQEAGFKQGYDKGKEEGLQAGHAEGLELGKAEGVSAGQEFIQQQVEVFMNLANQFAQPLELMNAQVEKQLVDMVLCLVKEVVHVEVQTNPQIILDTVKQSVEALPISGHPITLHLNPEDVAIIRSAYGEEDLDCRNWTLVSEPSLNRGDVQIEAGESSINYRMEERIKSVLHSFCGANRHQEGELEHHHHHH | soluble |
| MKTMTLYVCQNCGYQSAKWLGKCPDCSAWNSLVEEVRGKGKGPSAPLSGVAPVPICDVAGEAEERLPCGISEFDRVLGGGLVAGSVILIGGDPGIGKSTLLLQVMDHLARTVGPVLYVSGEESARQARLRGERLGIRAKELLILAETALETVLAQIGAVAPRAVVIDSIQTMYAPGLESAPGSVSQVRECAGRLMVAAKRSAIPTFIVGHVTKDGSIAGPRVLEHMVDTVLYFEGDRGHAFRILRAVKNRFGSTNEIGVFEMKEGGLCEVRNPSEIFLSERPLGVSGSAVVTTIEGSRPLLVELQALVTPSSLGVPRRTTLGVDANRLALLVAVLDKKVGLHMAGQDIFLNAAGGARVSEPAADLGMVAALASSHLDKVIDPQTVVVGEVGLAGEVRAITQPETRVREAAKLGFTRAVIPAGSLKQVTAVEGMEVIGVKSVEEALDRLLLEHHHHHH | not soluble |
| KNSINTIKLIDDIIALHNDPKGNKLLWNDNWQDKIINRDLANIFEKIDESVSELGGLEMYQEMVGVNPYDPTEPVCGLSAQNIFKLMTEGEHAVDPVEMAQTGKIDGNEFAESVDQLSSAKNYVALVNDRRLGHMFLIDIPSNDQETVGYIYQSDLGQGALPPLKIADWLNSRGKDAVSLNKLKKLLSREFNLLSDDEKRALISETLDIHKDVSNVELDRIKRDRGVDIYLTEYDVNNFYENIETLKSKLSNYDKKLSKPK | soluble |
| MLSKVQCILNRRTMADVDVDVPSAAPVLDGAMDINTALQEVLKKSLIADGLVHGIHQACKALDKRQAVLCILAESFDEPNYKKLVTALCNEHQIPLIRVDSHKKLGEWSGLCKIDKEGKPRKVCGCSVVVIKDFGEETPALDVVKDHLRQNSLEHHHHHH | not soluble |
| MINFDNFKKYQESFGYMAQQLCFPEKLTFHPKTFEETISKDHPAYEDLVAFRNVMMTFSLSEIKAIYTDTFDFTKKAPLYMTYNKFDTQKERGQMLAKLKVLYEMFGLEMVDNELSDYLPLMLQFLQVAEWRNDPRAEENIQLIIMIIEDGTYVMANALGEDNNPYAYVIQALRKTLKLCLTSPKGVKHHA | not soluble |
| MAHHHHHHMTTVPESTCAASCESQLCLLCDTPYTSWTEHSREHAHVARSVVCRFFVMPERSESIMQHLERHIALDLKEVDALTDRKVGRRRERLLAGLVHLVEKGVLRDSIPTLPFSTPARGGTDKGRGAGISGVTLGVDADLFLNRVLVGEAFLRREVLDRCARLMPSLTAMELNSVVTYLTSTRQMARIFDELSLIELLVTRSGLESAPANVNTATAAATAAGRAAESASVEPLSETAAAPLPDSDASTESPPAHQPCSSTLAASLPSPPRWSLSREDKVYIMCACLGELHRFHEQERPRSVISKAAADAIVLNVLAGHGRENLVSELVHETLQRIVDEGTVVWRQHQEDVKRRGRSSEANVAGAARISARRAPRTDSTVSEDLCYVRTAPLPSAPSPRPASQVTLDSAAAEQLVSSYLPFNDVDQLSGAETDAVKATAEAPSRSSPDRTCTTSPECISVLHTSEKDWGPLTAELRKRAEDWNRLPFVPSTPELKASKMPR | not soluble |
